Measurements reported in the supplement of paper PMC10724198.
Several values for one entry are separate records, joined by “and”; a condition that tells them apart may be missing. Equal values may be shown once. ± gives the standard deviation of the averaged measurements.

Columns and labels:
[1] = tested on: Saccharomyces cerevisiae; assay: protein stability index of tFT-peptide fusion in wild type (PSI (0-1 scale)); higher = more stable (slower turnover); settings: genetic background: wild type
[2] = tested on: Saccharomyces cerevisiae; assay: protein stability index of tFT-peptide fusion in deletion strain of DOA10 (PSI (0-1 scale)); higher = more stable (slower turnover)
Description: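 MPS profiling in S. cerevisiae of two library types built from selected 12-aa C-degron peptides (IN1, IN2, LN1, LN3, VN2, R1-R5, W1-W3, Atg1 and Rpa12 C-termini): saturation mutagenesis libraries and C-terminal +1 capping libraries (13 aa). Each peptide is fused to the C-terminus of a sfGFP-mCherry timer, after a GGGS linker. Cells are FACS-sorted into 8 mCherry/sfGFP bins and sequenced. PSI runs from 0 (unstable) to 1 (stable), measured once in wild type and in the das1Δ or doa10Δ background.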

[3] = tested on: Saccharomyces cerevisiae; assay: protein stability index of tFT-peptide fusion (C-terminal peptide) (PSI (0-1 scale)); higher = more stable (slower turnover)
Description: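 MPS profiling in S. cerevisiae of the tFT-X12 degron library: putative degron peptides plus stable controls, 12 aa, fused to the C-terminus of a sfGFP-mCherry timer. Cells are FACS-sorted into 8 mCherry/sfGFP bins and deep-sequenced. PSI runs from 0 (unstable) to 1 (stable). Backgrounds are wild type, das1Δ and doa10Δ at 30 °C, and wild type, das1Δ, cdc34-1 and cdc53-1 at 37 °C; 2-3 technical replicates each.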

[4] = tested on: Saccharomyces cerevisiae; assay: as above; settings: genetic background: wild type; temperature: 30 C
[5] = tested on: Saccharomyces cerevisiae; assay: protein stability index of tFT-peptide fusion in deletion strain of DAS1 (PSI (0-1 scale)); higher = more stable (slower turnover)
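For protein stability index of tFT-peptide fusion (C-terminal peptide) in this document: PSI is a weighted mean of sequencing reads over stability bins, variants kept only with over 10 reads, mCherry proximal and sfGFP distal, peptide attached via GGGS linker.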
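For protein stability index of tFT-peptide fusion in deletion strain of DAS1 in this document: PSI is a weighted mean of each variant's read distribution over the sorted stability bins, computed only for variants having over 10 reads in total.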
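For protein stability index of tFT-peptide fusion in deletion strain of DOA10 in this document: PSI per variant is the weighted mean of its sequencing read distribution over the sorted stability bins, counting only variants with over 10 reads summed across bins.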
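For protein stability index of tFT-peptide fusion in wild type in this document: PSI derived as read-weighted mean over the 8 sorting bins, only variants exceeding 10 total reads kept, mCherry placed adjacent to the peptide and sfGFP distal.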

Sequence | protein stability index [1] | protein stability index [2] | further results
AGTLPMCPLLLR | 0.461 | 0.671 | 
AIGLPMCPLLLR | 0.297 | 0.653 | 
AITLPDCPLLLR | 0.437 | 0.711 | 
AITLPHCPLLLR | 0.264 | 0.713 | 
AITLPICPLLLR | 0.194 | 0.667 | 
AITLPMAPLLLR | 0.253 | 0.666 | 
AITLPMCPILLR | 0.216 | 0.619 | 
AITLPMCPLCLR | 0.556 | 0.702 | 
AITLPMCPLLLP | 0.627 | 0.675 | 
AITLPMCPLLLRL | 0.12 | 0.563 | 
AITLPMCPLLLRY | 0.152 | 0.633 | 
AITLPMCPLWLR | 0.239 | 0.695 | 
AITLPMCPNLLR | 0.645 | 0.672 | 
AITLPMCPTLLR | 0.581 | 0.678 | 
AITLPMNPLLLR | 0.392 | 0.685 | 
AITLPMWPLLLR | 0.124 | 0.673 | 
AITLTMCPLLLR | 0.386 | 0.667 | 
AITLYMCPLLLR | 0.309 | 0.628 | 
AITPPMCPLLLR | 0.458 | 0.686 | 
AKTLPMCPLLLR | 0.352 | 0.672 | 
ALTLPMCPLLLR | 0.21 | 0.646 | 
AVTRLDAIYFRI | 0.317 | 0.696 | 

Sequence | protein stability index [1] | protein stability index [2] | further results
AWTLPMCPLLLR | 0.111 | 0.665 | 
CLISLPILLFFR | 0.0542 | 0.552 | 
CLRSLPILLFFR | 0.0732 | 0.619 | 
CLSSLPILLFFR | 0.0943 | 0.641 | 
CLVNLPILLFFR | 0.0622 | 0.597 | 
CLVSLGILLFFR | 0.276 | 0.436 | 
CLVSLPDLLFFR | 0.188 | 0.709 | 
CLVSLPGLLFFR | 0.126 | 0.656 | 
CLVSLPHLLFFR | 0.0749 | 0.67 | 
CLVSLPILKFFR | 0.63 | 0.666 | 
CLVSLPILLFFA | 0.256 | 0.346 | 
CLVSLPILLFFRD | 0.103 | 0.594 | 
CLVSLPILLFFRH | 0.0656 | 0.577 | 
CLVSLPILLFFRP | 0.068 | 0.563 | 
CLVSLPILLFFRS | 0.0709 | 0.533 | 
CLVSLPILLFLR | 0.0512 | 0.564 | 
CLVSLPILLQFR | 0.344 | 0.642 | 
CLVSLPILRFFR | 0.612 | 0.657 | 
CLVSLPILYFFR | 0.468 | 0.605 | 
CLVSLPLLLFFR | 0.0578 | 0.606 | 
CLVSLPRLLFFR | 0.0729 | 0.664 | 
CNVSLPILLFFR | 0.0527 | 0.642 | 

Sequence | protein stability index [1] | protein stability index [2] | further results
CWVSLPILLFFR | 0.0534 | 0.54 | 
ELYMCSVGCWFR | 0.388 | 0.651 | 
ESLRVLLPLYFR | 0.308 | 0.683 | 
GEYMCSVGCWFR | 0.425 | 0.667 | 
GGYMCSVGCWFR | 0.439 | 0.687 | 
GLGMCSVGCWFR | 0.336 | 0.674 | 
GLSMCSVGCWFR | 0.235 | 0.671 | 
GLYECSVGCWFR | 0.526 | 0.678 | 
GLYMCSQGCWFR | 0.463 | 0.691 | 
GLYMCSVFCWFR | 0.222 | 0.365 | 
GLYMCSVGCCFR | 0.611 | 0.651 | 
GLYMCSVGCWFA | 0.35 | 0.371 | 
GLYMCSVGCWFRA | 0.225 | 0.44 | 
GLYMCSVGCWFRC | 0.188 | 0.433 | 
GLYMCSVGCWFRI | 0.11 | 0.455 | 
GLYMCSVGCWRR | 0.62 | 0.662 | 
GLYMCSVGEWFR | 0.663 | 0.686 | 
GLYMCSVGYWFR | 0.213 | 0.603 | 
GLYMCSVHCWFR | 0.371 | 0.453 | 
GLYMCTVGCWFR | 0.219 | 0.527 | 
GLYMGSVGCWFR | 0.303 | 0.704 | 
GLYTCSVGCWFR | 0.392 | 0.682 | 

Sequence | protein stability index [1] | protein stability index [2] | further results
GLYWCSVGCWFR | 0.246 | 0.646 | 
GPYMCSVGCWFR | 0.413 | 0.667 | 
GTYMCSVGCWFR | 0.344 | 0.675 | 
HITLPMCPLLLR | 0.332 | 0.657 | 
NSLRVLLPLYFR | 0.357 | 0.662 | 
RCLRVLLPLYFR | 0.257 | 0.647 | 
RLIQPLPVQFLN | 0.0747 and 0.0662 |  | protein stability index ([3]; genetic background: cdc34-1, temperature: 37 C): 0.2752 ± 0.002; protein stability index ([3]; genetic background: cdc53-1, temperature: 37 C): 0.644 ± 0.089; protein stability index ([3]; genetic background: das1 deletion, temperature: 30 C): 0.616 ± 0.026; protein stability index ([3]; genetic background: das1 deletion, temperature: 37 C): 0.732 ± 0.066; protein stability index ([3]; genetic background: doa10 deletion, temperature: 30 C): 0.0708 ± 0.018; protein stability index ([3]; genetic background: wild type, temperature: 30 C): 0.0754 ± 0.0037; protein stability index ([3]; genetic background: wild type, temperature: 37 C): 0.0963 ± 0.012; protein stability index [4]: 0.0935 ± 0.0062; protein stability index [5]: 0.672 and 0.598
VRGAVGGWRLVY | 0.654 |  | protein stability index [5]: 0.636
VRGAVGGWRVVG | 0.259 |  | protein stability index [5]: 0.654
VRGAVGKWRLVG | 0.172 |  | protein stability index [5]: 0.68
VRGAVGMWRLVG | 0.169 |  | protein stability index [5]: 0.691
VRGAVQGWRLVG | 0.157 |  | protein stability index [5]: 0.682
VRGDVGGWRLVG | 0.108 |  | protein stability index [5]: 0.679
VRGKVGGWRLVG | 0.129 |  | protein stability index [5]: 0.67
VRGLVGGWRLVG | 0.154 |  | protein stability index [5]: 0.678
VRKAVGGWRLVG | 0.18 |  | protein stability index [5]: 0.665
VRMAVGGWRLVG | 0.132 |  | protein stability index [5]: 0.672
VRSAVGGWRLVG | 0.141 |  | protein stability index [5]: 0.685
WLIQPLPVQFLN | 0.0761 |  | protein stability index [5]: 0.643
WRGAVGGWRLVG | 0.174 |  | protein stability index [5]: 0.655
YSLAASFWRVVG | 0.128 |  | protein stability index [5]: 0.67
YTSCGYKFRTNN | 0.212 |  | protein stability index [5]: 0.691
